This data set in a line: label from the status in PepcDB records.

With “MNIVIAVGILVTLVTGIPVLLQLLKGHPRGLIICFLAEMWERFSYYGMRAILIFYLTQHFLFDPKAASGHYGSYTALVYLVPLIGGFLADKWLGTRKAVAFGAVLLVAGHLAMAIEGKPAVQTLTYQGATYEFQAEGRGQNREAKLVVDGKAYEVAATKVGDFEIKGLPANAPLPAVLPKADYKLDVAGRDPLYLNIFWFSLSLIILGVGFLKPNISTIVGQLYPQGDPRRDPGFTLYYYGINLGSFWASILCGLLGVNVGWWAGFGLAGVGMLAGFIVFVLGKPWLDGKAEPPEPKVLKEKVAGPINRELAIYGLSLVGLVGIFFLVQFNAIVGVALNIGILASLGYIGFFMFTKCAKEERERLALAVFLIFGAVVFWTLFEQAGSSLSLFAATNVQLDLVREPLRLFSGAVTLATPDQLAKAGIDAASTFWVDTSFNAPQTQALNAGWILIFAPVFAAVWTFLGARGKDPNPVIKFGLALIQVGAGFLLLQWGSTFADGAFKLPLIFLVLMYMLHTTGELCMSPVGLSQMTKLSPASVVSFMMAVWFLAVAIAQWVGGKIAGLAATETVGGQVLDPGAALAASLKVFNIIGLVAVAIGIGFLLLSPVLKKWSHGADNVGAPKKA”, the protein production entry is “failed”.

Turning to “MNIVLFHSTLGPRPAVRQAADRLRDAGHQVWTPDLFEGRTFDTVEEGMAHQDGIGREELLKRAVLAAAPYSERGLVYAGFSLGASIAQTLALGDHRARGLLLLHGTSDLAPNASVDELPVQLHVAEPDPFETDDWLSAWYLQMGRIGADVEVHRYPGAGHLYTDPGLDDYDAEAAEATWRVALGFLESLQEAQAGE”, the protein production entry is on record as “failed”.

As for “MNIVSQLSPVTLSPELIARFTAIVGDKHALTDPLELEAYITEERNLYRGHSPLVLRPGSTEEVVAICKLANEARVALVPQGGNTGLVGGQTPHNGEVVISLKRMDKIREIDTSSNTITVEAGAILQRVQEKAAEVDRLFPLSLGAQGSCTIGGNLSTNAGGTAALAYGLARDMALGVEVVLADGRVMNLLSKLKKDNTGYDLRDLFIGAEGTLGIITAATLKLFPKPRAVETAFVGLQSPDDALKLLGIAQGEAAGNLTSFELIAETPLDFSVRHANNRDPLEARYPWYVLIELSSPRDDARAALESILERGFEDGIVVDAAIANSVQQQQAFWKLREEISPAQKPEGGSIKHDISVPVAAVPQFIEQANAAVVALIPGARPVPFGHLGDGNIHYNVSQPVGADKAEFLARWHDVSQVVFEVVLRLGGSISAEHGIGVMKRDELAEVKDKTAIELMRSIKALLDPHGIMNPGKVV”, the protein production entry is listed as “not failed”.

Turning to “MNKAITVIVWLLVSLCVLAIITMPVSLQTHLVATAISLILLATIKSFNGQGAWRLVALGFGTAIVLRYVYWRTTSTLPPVNQLENFIPGFLLYLAEMYSVVMLGLSLVIVSMPLPSRKTRPGSPDYRPTVDVFVPSYNEDAELLANTLAAAKNMDYPADRFTVWLLDDGGSVQKRNAANIVEAQAAQRRHEELKKLCEDLDVRYLTRERNVHAKAGNLNNGLAHSTGELVTVFDADHAPARDFLLETVGYFDEDPRLFLVQTPHFFVNPDPIERNLRTFETMPSENEMFYGIIQRGLDKWNGAFFCGSAAVLRREALQDSDGFSGVSITEDCETALALHSRGWNSVYVDKPLIAGLQPATFASFIGQRSRWAQGMMQILIFRQPLFKRGLSFTQRLCYMSSTLFWLFPFPRTIFLFAPLFYLFFDLQIFVASGGEFLAYTAAYMLVNLMMQNYLYGSFRWPWISELYEYVQTVHLLPAVVSVIFNPGKPTFKVTAKDESIAEARLSEISRPFFVIFALLLVAMAFAVWRIYSEPYKADVTLVVGGWNLLNLIFAGCALGVVSERGDKSASRRITVKRRCEVQLGGSDTWVPASIDNVSVHGLLINIFDSATNIEKGATAIVKVKPHSEGVPETMPLNVVRTVRGEGFVSIGCTFSPQRAVDHRLIADLIFANSEQWSEFQRVRRKNPGLIRGTAIFLAIALFQTQRGLYYLVRARRPAPKSAKPVGAVK”, the protein production entry was “failed”.

As to “MNKAVETRLNKSRPGGWIPRDGAHIERWIRRIKHYVTQQPRALVPPIAELRDLVHANPALHAQAEAMFKEAWRHKHLTPLGQPEVRSFEEFLGLLNGIMTTAPEAYQDIPSHEPSGLIGFPINALLDWPMATQSGYHFFANALINQQFKKILDYWAQFLQSPASRYVLNEPVSRLDQETLVVPWLGKVAKAEMVKVANEAVGEGPNPTPGSFEQIFECEPAAEYHGFSCWDDFFTRRFRAGVRPVSAPTDDGVIVNACESAPLQVRKEVSRSDQFWLKGQPYSLDNMLDFDDLAPRFEGGTVYQAFLSALSYHRWHSPVSGTIRKVRIVNGTYYLENQFEGFADPQGADPSAPNNSQPFLTSVATRALIFIEADNPKIGLMCVVPVGMAEVSSCEITVQAGDRVQKGDPLGMFHFGGSTHCLLFRPGVRLEFDFHGQIPGLDATNMRLNTAIARVK”, the protein production entry is given as “failed”.

With “MNKEQLQQMRQAPGFVGALDQSGGSTPKALKAYGIQPDAYQSEEEMFDLIHQMRTRMITSPAFATGKIIGVILFERTMRGKIEGMPTADFLWEKRHIVPFLKVDKGLQDEANGVQLMKPFPELGKLCEEAVGYHVFGTKMRSVIKQANEQGIRDIVEQQFQWGKEILSHGLVPILEPEVDIHCPEKAKAEEILKRELLAQLDKMTEPVMLKITIPTVDNFYKEIIEHPMMLRVVALSGGYSREQANELLSRNHGVIASFSRALVEGLSARQTDAEFNAMLEASIEDVYQASIK”, the protein production entry was “not failed”.

Regarding “MNKFKLGSDFDHLVNSLSDVELLNLFIQSCSQTTINGVPVPRFPPEEIQKQFVGASYEHALYEAYLFYRHIKEYAQNLGVPLNKESKVLDFGCGWGRIIRFLFKDASDQNLLGIDVDPAMITLCNETLGRGIYKTASPHPPVEFISDNSLDIIFAYSVFSHLSEATAENWVKEFSRVLRPGGIFIATTQARYFLDFCQQFQEHPELIQTGWHKTLSQAFPDIHRAISDYENGKFVHSPTGAGDVRNSSFYGETVIPRTYIENHYEKYLKLQDFFDDVNRLPQALFVLQKILEHHHHHH”, the protein production result is “not failed”.

Regarding “MNKGKFALLFTFAACFAVIVFFWLLAVPPENFTADRIVMVLLISPIFAILLAFNLSRFLKQHGYSLRQVHVALEQNIADFIYEFQRLVFIHLMPIAFLGALIFYYGEFTPAIAEFLSLFALIFALSPLLFLGISFFVAMLQVYERVRKKSLLRANFFNFWIWIHLFVILLIIISKVLVQPSELPFQKAYFKALNDGVFNLLIIATMNAIFGVTGRMVAREKFPILLHLSIPLVNSFVAVKILMA”, the protein production result is on record as “failed”.

As for “MNKHFLETLLQKHQQAGTFPSTSDICRLVTRILLVLFPEQTQAKYKDVADVEIQMGVYQKELTRLLGSMQKDLPAPANELSDAFMNELSVIYDKLLLDIQAILNGDPAARSEFEVIRAYPGFYAIAFYRMAHALYKLNIPLMPRIIMEYAHSKTGIDIHPGATIGKNFYIDHGTGIVIGETAHIGDNVKVYQGVTLGALSVSKDKADTKRHPTIEDNVIIYSGATILGGKTVVGHDSIIGGNVWLTESVQPFTRVYHKAQIEVIIKNADPSLNETENNEEAIRKMKKAESENTKKNS”, the protein production result is recorded as “failed”.

For “MNKKKKKRTPKPINLNELEEKINILNFMKNDFEIVLQKENEKHSEVSIQYTNKEESSTLERERINIILKELIISCNEKKEHLNNYIKVAKDIIQKNNETIEKEKNDIDKLILQKDEQIKDVEKKIVIVQNFYKDINKGIIQLINNLEVYLRNKMNINIDIKKMNDKTIELTNVQKLNKQQECKENEFKNILYMSIDKYNEQISIIRTFIKKIKLKQEIDVIKEDNIINTNDDILREPSNNTNEQKEQSHKYDYSHDENENNNFRKYEMINIEEENDKENNVKGDNKLIINKNNVDSFDEDDSYDEDDSCDEDNSCDEDNSCGEVNSCGEDDSYDEDDSYDEDDSYDEDNSYDEDNSYDEDNRCGEKLEKEQLHNLQDDKKNYTLKKNINETLLSSLDDDESKFSSSNSDTTKSFEVYKNKEKDKDKEIYNYLYSEEETYEQKKNNESSNSDDDDNKKEHFIKKFTTLKTNKNILNEDVQFLMDKIKKIDYDYISYFEKKLKYK”, the protein production result is on record as “failed”.

For the sequence “MNKKRIVFGLLSFFLPIFLVFGGLLFFLLLLTSTSDTSKNDCIQPSINNPTDATDTPKSIEQFVKSHKDAYLLSWKAGGFLPSASISQTMVENGFNFTNPSGTSFWQAHNMGGVKTSKKEDFPVTLATFGQDSVDISGTKPGSNVGDGTGGAYTWFKDYNAGIVGKAEFMAHQTLYTGAINNTDGLSTLSAIYSGGWATDPTYLMKLQATYNSLGKQFQWLDQEAIQKYGNAPFKKSELVLNIPGKSPITNEKYGKNSDCVVTSDTSDQVTGQNTAPSLEVPSAYKGKLTLPPIDSNDYAGNNYPFGQCTWYAYNRMAQIGKPIEWFSGDGGNGAGWANSARAKGYTVVKVKPSVGWAASMQGGIGGSAPPYGHVAVVEYVNSDGSILVSEANVINQGSGTRSWRVLDRATVEQIDFIQGKGALEHHHHHH”, the protein production entry is given as “failed”.

For the origin of these results see a protein production outcome set (Wang et al. 2014).
